The text below walks through data of publication PMC7346273 (ACS Omega, 2020).

In this experiment the target is Aβ42 monomer (UniProt P05067 672-713). The experiment can be described thus: NMR titration.
Sequence of Aβ42 monomer (P05067 672-713): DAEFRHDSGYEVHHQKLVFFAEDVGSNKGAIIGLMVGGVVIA

B1: P_(active) (peptide)
peptide: GFLLHQK
Consider B1, for which the binding result is “binds”.
